Experimental data from patent publication US10450368.

Tests used:
[1] = molecular target: CH505 TF loop D mutant M20 Env (pseudovirus) (HIV-1); experiment: cell-based or functional assay
[2] = molecular target: CH505 TF loop D mutant M7 Env (pseudovirus) (HIV-1); experiment: cell-based or functional assay
[3] = molecular target: CH505 TF loop D mutant M8 Env (pseudovirus) (HIV-1); experiment: cell-based or functional assay
[4] = molecular target: CH505 TF loop D mutant M9 Env (pseudovirus) (HIV-1); experiment: cell-based or functional assay
CH505.M10D8gp120 = experiment: direct-binding ELISA
CH505.M11D8gp120/293F = experiment: direct-binding ELISA
CH505.M19D8gp120 = experiment: direct-binding ELISA
CH505.M21D8gp120/293F = experiment: direct-binding ELISA
CH505.M5D8gp120293F = experiment: direct-binding ELISA
CH505.M7D8gp120/293F = experiment: direct-binding ELISA
CH505.M9D8gp120/293F = experiment: direct-binding ELISA
[5] = molecular target: CH505.TF mutant gp120 M20 (HIV-1); experiment: direct-binding ELISA
[6] = molecular target: CH505.TF mutant gp120 M6 (HIV-1); experiment: direct-binding ELISA
[7] = molecular target: CH505.TF mutant gp120 M8 (HIV-1); experiment: direct-binding ELISA
[8] = molecular target: CH505_w137V201B12.D11gp120 (HIV-1); experiment: direct-binding ELISA
[9] = molecular target: CH505_w137V209C12.D11gp120 (HIV-1); experiment: direct-binding ELISA
[10] = molecular target: CH505w136.B10D8gp120 (HIV-1); experiment: direct-binding ELISA
[11] = molecular target: CH505w136.B12D8gp120 (HIV-1); experiment: direct-binding ELISA
[12] = molecular target: CH505w136.B18D8gp120 (HIV-1); experiment: direct-binding ELISA
[13] = molecular target: CH505w136.B20D8gp120 (HIV-1); experiment: direct-binding ELISA
[14] = molecular target: CH505w136.B27D8gp120 (HIV-1); experiment: direct-binding ELISA
[15] = molecular target: CH505w136.B29D8gp120 (HIV-1); experiment: direct-binding ELISA
[16] = molecular target: CH505w136.B2D8gp120/293F (HIV-1); experiment: direct-binding ELISA
[17] = molecular target: CH505w136.B36D8gp120 (HIV-1); experiment: direct-binding ELISA
[18] = molecular target: CH505w136.B3D8gp120/293F (HIV-1); experiment: direct-binding ELISA
[19] = molecular target: CH505w136.B4D8gp120 (HIV-1); experiment: direct-binding ELISA
[20] = molecular target: CH505w136.B5D8gp120 (HIV-1); experiment: direct-binding ELISA
[21] = molecular target: CH505w136.B8D8gp120 (HIV-1); experiment: direct-binding ELISA
[22] = molecular target: CH505w160.A1D8gp120 (HIV-1); experiment: direct-binding ELISA
[23] = molecular target: CH505w160.C11D8gp120 (HIV-1); experiment: direct-binding ELISA
[24] = molecular target: CH505w160.C12D8gp120 (HIV-1); experiment: direct-binding ELISA
[25] = molecular target: CH505w160.C14D8gp120 (HIV-1); experiment: direct-binding ELISA
[26] = molecular target: CH505w160.C2D8gp120 (HIV-1); experiment: direct-binding ELISA
[27] = molecular target: CH505w160.C4D8gp120 (HIV-1); experiment: direct-binding ELISA
[28] = molecular target: CH505w160.D1D8gp120 (HIV-1); experiment: direct-binding ELISA
[29] = molecular target: CH505w160.D5D8gp120/293F (HIV-1); experiment: direct-binding ELISA
[30] = molecular target: CH505w160.T2D8gp120 (HIV-1); experiment: direct-binding ELISA
[31] = molecular target: CH505w160.T4D8gp120/293F (HIV-1); experiment: direct-binding ELISA
Centromere B [32] = molecular target: Centromere B (UniProt P07199); experiment: AtheNA, Ab 25 ug/ml
Centromere B, sequence (P07199 whole entry): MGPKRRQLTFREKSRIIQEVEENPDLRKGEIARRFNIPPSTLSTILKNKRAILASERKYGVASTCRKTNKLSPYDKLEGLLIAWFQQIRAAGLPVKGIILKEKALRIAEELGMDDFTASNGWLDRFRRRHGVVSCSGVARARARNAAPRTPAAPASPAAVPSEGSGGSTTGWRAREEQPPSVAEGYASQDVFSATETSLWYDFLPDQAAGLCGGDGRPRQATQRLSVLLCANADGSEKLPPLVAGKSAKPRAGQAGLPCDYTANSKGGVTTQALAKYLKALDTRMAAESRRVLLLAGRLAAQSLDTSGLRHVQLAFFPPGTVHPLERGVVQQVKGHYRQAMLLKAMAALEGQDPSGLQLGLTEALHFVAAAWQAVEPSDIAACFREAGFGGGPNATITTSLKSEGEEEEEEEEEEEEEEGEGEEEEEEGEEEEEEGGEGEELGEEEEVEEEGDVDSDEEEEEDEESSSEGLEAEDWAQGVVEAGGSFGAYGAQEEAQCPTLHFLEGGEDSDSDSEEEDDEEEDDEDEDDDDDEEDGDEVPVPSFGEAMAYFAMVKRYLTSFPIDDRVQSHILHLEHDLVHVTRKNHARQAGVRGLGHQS

Histones [33] = experiment: AtheNA, Ab 25 ug/ml
Jo-1 [34] = molecular target: Jo-1 (UniProt P12081); experiment: AtheNA, Ab 25 ug/ml
Jo-1, sequence (P12081 whole entry): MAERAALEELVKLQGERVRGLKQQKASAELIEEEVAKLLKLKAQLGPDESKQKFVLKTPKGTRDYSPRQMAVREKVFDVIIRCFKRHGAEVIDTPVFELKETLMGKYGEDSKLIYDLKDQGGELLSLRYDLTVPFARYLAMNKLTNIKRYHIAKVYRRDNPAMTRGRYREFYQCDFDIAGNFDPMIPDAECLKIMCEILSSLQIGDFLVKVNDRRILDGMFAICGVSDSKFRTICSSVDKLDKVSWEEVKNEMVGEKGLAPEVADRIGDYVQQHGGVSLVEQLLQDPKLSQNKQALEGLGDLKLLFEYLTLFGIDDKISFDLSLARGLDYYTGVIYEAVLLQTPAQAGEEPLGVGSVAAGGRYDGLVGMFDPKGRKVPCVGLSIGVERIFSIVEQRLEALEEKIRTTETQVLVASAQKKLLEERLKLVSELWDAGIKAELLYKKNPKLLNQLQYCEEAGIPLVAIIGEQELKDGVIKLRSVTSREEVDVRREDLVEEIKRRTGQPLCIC

RNP (ribonucleoprotein) [35] = experiment: AtheNA, Ab 25 ug/ml
SSA [36] = experiment: AtheNA, Ab 25 ug/ml
SSB [37] = molecular target: SSB (UniProt P05455); experiment: AtheNA, Ab 25 ug/ml
SSB, sequence (P05455 whole entry): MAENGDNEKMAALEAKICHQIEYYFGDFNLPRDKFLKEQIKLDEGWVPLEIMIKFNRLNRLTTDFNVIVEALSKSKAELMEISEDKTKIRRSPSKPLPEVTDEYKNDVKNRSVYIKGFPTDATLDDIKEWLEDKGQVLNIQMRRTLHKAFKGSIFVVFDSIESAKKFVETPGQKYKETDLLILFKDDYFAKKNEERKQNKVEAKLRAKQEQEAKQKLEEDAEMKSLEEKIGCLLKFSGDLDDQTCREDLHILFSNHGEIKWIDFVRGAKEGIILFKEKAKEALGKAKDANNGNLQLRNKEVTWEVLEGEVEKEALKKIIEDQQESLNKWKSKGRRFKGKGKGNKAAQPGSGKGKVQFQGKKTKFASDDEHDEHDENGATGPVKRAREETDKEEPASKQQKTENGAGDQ

Scl-70 [38] = molecular target: Scl-70 (UniProt P11387); experiment: AtheNA, Ab 25 ug/ml
Scl-70, sequence (P11387 whole entry): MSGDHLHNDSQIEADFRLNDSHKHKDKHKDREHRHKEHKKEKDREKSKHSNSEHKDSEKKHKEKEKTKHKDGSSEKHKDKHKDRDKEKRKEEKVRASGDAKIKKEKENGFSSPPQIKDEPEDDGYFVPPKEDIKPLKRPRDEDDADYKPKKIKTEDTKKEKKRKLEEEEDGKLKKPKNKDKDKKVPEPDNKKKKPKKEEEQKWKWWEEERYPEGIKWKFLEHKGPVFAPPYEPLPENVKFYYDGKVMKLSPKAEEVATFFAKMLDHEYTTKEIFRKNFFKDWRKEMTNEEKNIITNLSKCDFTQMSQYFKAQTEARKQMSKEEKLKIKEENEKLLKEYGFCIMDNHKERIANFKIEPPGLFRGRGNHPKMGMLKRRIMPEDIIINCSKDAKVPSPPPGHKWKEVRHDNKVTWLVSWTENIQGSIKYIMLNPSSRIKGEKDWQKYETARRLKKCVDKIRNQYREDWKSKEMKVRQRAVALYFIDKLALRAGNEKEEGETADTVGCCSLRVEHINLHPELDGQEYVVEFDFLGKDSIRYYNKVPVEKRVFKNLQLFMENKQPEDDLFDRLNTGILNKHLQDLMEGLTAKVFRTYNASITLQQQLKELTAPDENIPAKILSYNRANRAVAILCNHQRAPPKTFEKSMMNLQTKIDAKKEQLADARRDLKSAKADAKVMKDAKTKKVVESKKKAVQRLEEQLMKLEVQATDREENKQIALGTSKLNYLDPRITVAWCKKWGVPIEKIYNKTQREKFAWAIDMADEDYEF

Sm (Smith antigen) [39] = experiment: AtheNA, Ab 25 ug/ml
Centromere B [40] = molecular target: Centromere B (UniProt P07199); experiment: AtheNA, Ab 25 ug/ml; remark: listed apart in the source
Histones [41] = experiment: AtheNA, Ab 25 ug/ml; remark: listed apart in the source
Jo-1 [42] = molecular target: Jo-1 (UniProt P12081); experiment: AtheNA, Ab 25 ug/ml; remark: listed apart in the source
RNP (ribonucleoprotein) [43] = experiment: AtheNA, Ab 25 ug/ml; remark: listed apart in the source
SSA [44] = experiment: AtheNA, Ab 25 ug/ml; remark: listed apart in the source
SSB [45] = molecular target: SSB (UniProt P05455); experiment: AtheNA, Ab 25 ug/ml; remark: listed apart in the source
Sm (Smith antigen) [46] = experiment: AtheNA, Ab 25 ug/ml; remark: listed apart in the source
Centromere B [47] = molecular target: Centromere B (UniProt P07199); experiment: AtheNA, Ab 12.5 ug/ml
Histones [48] = experiment: AtheNA, Ab 12.5 ug/ml
Jo-1 [49] = molecular target: Jo-1 (UniProt P12081); experiment: AtheNA, Ab 12.5 ug/ml
RNP (ribonucleoprotein) [50] = experiment: AtheNA, Ab 12.5 ug/ml
SSA [51] = experiment: AtheNA, Ab 12.5 ug/ml
SSB [52] = molecular target: SSB (UniProt P05455); experiment: AtheNA, Ab 12.5 ug/ml
Scl-70 [53] = molecular target: Scl-70 (UniProt P11387); experiment: AtheNA, Ab 12.5 ug/ml
Sm (Smith antigen) [54] = experiment: AtheNA, Ab 12.5 ug/ml
Centromere B [55] = molecular target: Centromere B (UniProt P07199); experiment: AtheNA, Ab 6.25 ug/ml
Histones [56] = experiment: AtheNA, Ab 6.25 ug/ml
Jo-1 [57] = molecular target: Jo-1 (UniProt P12081); experiment: AtheNA, Ab 6.25 ug/ml
RNP (ribonucleoprotein) [58] = experiment: AtheNA, Ab 6.25 ug/ml
SSA [59] = experiment: AtheNA, Ab 6.25 ug/ml
SSB [60] = molecular target: SSB (UniProt P05455); experiment: AtheNA, Ab 6.25 ug/ml
Scl-70 [61] = molecular target: Scl-70 (UniProt P11387); experiment: AtheNA, Ab 6.25 ug/ml
Sm (Smith antigen) [62] = experiment: AtheNA, Ab 6.25 ug/ml

Substance: CH235.9 N30T (antibody)
- neutralization IC50, TZM-bl pseudovirus assay [1]: > 44 µg/mL
- neutralization IC50, TZM-bl pseudovirus assay [2]: > 44 µg/mL
- fold increase of neutralization IC50 against CH235.9 [3]: 37 fold
- neutralization IC50, TZM-bl pseudovirus assay [3]: 24.3 µg/mL
- neutralization IC50, TZM-bl pseudovirus assay [4]: > 44 µg/mL

Substance: CH248 (antibody)
- LogAUC (CH505.M10D8gp120): 13.8
- LogAUC (CH505.M11D8gp120/293F): 13.6
- LogAUC (CH505.M19D8gp120): 13.2
- LogAUC (CH505.M21D8gp120/293F): 13.8
- LogAUC (CH505.M5D8gp120293F): 11
- LogAUC (CH505.M7D8gp120/293F): 12.4
- LogAUC (CH505.M9D8gp120/293F): 13
- LogAUC [5]: 13.2
- LogAUC [6]: 13.6
- LogAUC [7]: 12.3
- LogAUC [8]: 13.4
- LogAUC [9]: 14.7
- LogAUC [10]: 11.5
- LogAUC [11]: 12.9
- LogAUC [12]: 14.3
- LogAUC [13]: 12.9
- LogAUC [14]: 12.9
- LogAUC [15]: 12.3
- LogAUC [16]: 13.4
- LogAUC [17]: 14.4
- LogAUC [18]: 14
- LogAUC [19]: 13.4
- LogAUC [20]: 14.6
- LogAUC [21]: 12.3
- LogAUC [22]: 8.62
- LogAUC [23]: 10.7
- LogAUC [24]: 12.9
- LogAUC [25]: 10.3
- LogAUC [26]: 11.1
- LogAUC [27]: 10.5
- LogAUC [28]: 8.75
- LogAUC [29]: 7.84
- LogAUC [30]: 8.34
- LogAUC [31]: 13.5

Substance: synagis (antibody)
- AtheNA signal (relative luminescence units) (Centromere B [32]): 4
- AtheNA signal (relative luminescence units) (Histones [33]): 5
- AtheNA signal (relative luminescence units) (Jo-1 [34]): 2
- AtheNA signal (relative luminescence units) (RNP (ribonucleoprotein) [35]): 4
- AtheNA signal (relative luminescence units) (SSA [36]): 3
- AtheNA signal (relative luminescence units) (SSB [37]): 7
- AtheNA signal (relative luminescence units) (Scl-70 [38]): 2
- AtheNA signal (relative luminescence units) (Sm (Smith antigen) [39]): 3
- AtheNA signal (relative luminescence units) (Centromere B [40]): 2
- AtheNA signal (relative luminescence units) (Histones [41]): 2
- AtheNA signal (relative luminescence units) (Jo-1 [42]): 4
- AtheNA signal (relative luminescence units) (RNP (ribonucleoprotein) [43]): 0
- AtheNA signal (relative luminescence units) (SSA [44]): 11
- AtheNA signal (relative luminescence units) (SSB [45]): 4
- AtheNA signal (relative luminescence units) (Sm (Smith antigen) [46]): 4
- AtheNA signal (relative luminescence units) (Centromere B [47]): 2
- AtheNA signal (relative luminescence units) (Histones [48]): 3
- AtheNA signal (relative luminescence units) (Jo-1 [49]): 6
- AtheNA signal (relative luminescence units) (RNP (ribonucleoprotein) [50]): 3
- AtheNA signal (relative luminescence units) (SSA [51]): 2
- AtheNA signal (relative luminescence units) (SSB [52]): 5
- AtheNA signal (relative luminescence units) (Scl-70 [53]): 3
- AtheNA signal (relative luminescence units) (Sm (Smith antigen) [54]): 7
- AtheNA signal (relative luminescence units) (Centromere B [55]): 2
- AtheNA signal (relative luminescence units) (Histones [56]): 3
- AtheNA signal (relative luminescence units) (Jo-1 [57]): 1
- AtheNA signal (relative luminescence units) (RNP (ribonucleoprotein) [58]): 3
- AtheNA signal (relative luminescence units) (SSA [59]): 2
- AtheNA signal (relative luminescence units) (SSB [60]): 5
- AtheNA signal (relative luminescence units) (Scl-70 [61]): 2
- AtheNA signal (relative luminescence units) (Sm (Smith antigen) [62]): 2
